This passage reports Kd results from US20230381228A1 (University of California, published 2023).

What is called Kd is the free concentration of one partner at which half of the binding sites on the other are occupied at equilibrium, for simple one-to-one binding.

The labels stand for the following.
B1: anti-DPP6 nanobody 2hD1 (VHH)
VHH: QVQLQESGGGLVQPGGSLRLSCAASGYPYGYTFSSYCMRWFRQAPGKDREGVARFERNGLTTYYDDSVKGRFTISQDNVKNTVYLQMNSLKPEDTATYYCAAAPKQLRTCGDYNYWGQGTQVTVSS
B2: anti-DPP6 nanobody 2hD6 (VHH)
VHH: QVQLQESGGGSVQAGGSLRLSCAASSYTYSYSCMAWFRQAPGKERERVASIHTGTGTANYADSAKGRFTISQDIAANTVYLQMNSLKLEDTAMYYCAARPGSAALRCTTDYSKPHDFTYWGQGTQVTVSS
B3: anti-DPP6 nanobody 4hD29 (VHH)
VHH: QVQLQESGGGLVQPGGSLRLSCAASGFTFSSNYMTWVRQAPGKGPEWVSGINPDGSSTYYADSVKGRFTISRDNAKNTLYLQMNSLKSEDTALYKCATGAAPRIPTTLRGQGTQVTVSS
B4: anti-DPP6 nanobody 2hD123-A24V (VHH)
VHH: QVQLQESGGGSVQAGGSLRLSCAVSGSSYSRFRMGWFRQVPGKEREGVAAIYRSDGRTYYADSVKGRFTISQDNTKNTVYLQMNSLKPEDTAMYYCAAGAYSSYLMDANFAYWGQGTQVTVSS

This assay deals with T1, dipeptidyl aminopeptidase-like protein 6 (DPP6), human isoform 1 (human, UniProt P42658 117-865, limits assumed).
T1 construct: also called DPPX; DPP6 L
T1 sequence (P42658 117-865 limits assumed): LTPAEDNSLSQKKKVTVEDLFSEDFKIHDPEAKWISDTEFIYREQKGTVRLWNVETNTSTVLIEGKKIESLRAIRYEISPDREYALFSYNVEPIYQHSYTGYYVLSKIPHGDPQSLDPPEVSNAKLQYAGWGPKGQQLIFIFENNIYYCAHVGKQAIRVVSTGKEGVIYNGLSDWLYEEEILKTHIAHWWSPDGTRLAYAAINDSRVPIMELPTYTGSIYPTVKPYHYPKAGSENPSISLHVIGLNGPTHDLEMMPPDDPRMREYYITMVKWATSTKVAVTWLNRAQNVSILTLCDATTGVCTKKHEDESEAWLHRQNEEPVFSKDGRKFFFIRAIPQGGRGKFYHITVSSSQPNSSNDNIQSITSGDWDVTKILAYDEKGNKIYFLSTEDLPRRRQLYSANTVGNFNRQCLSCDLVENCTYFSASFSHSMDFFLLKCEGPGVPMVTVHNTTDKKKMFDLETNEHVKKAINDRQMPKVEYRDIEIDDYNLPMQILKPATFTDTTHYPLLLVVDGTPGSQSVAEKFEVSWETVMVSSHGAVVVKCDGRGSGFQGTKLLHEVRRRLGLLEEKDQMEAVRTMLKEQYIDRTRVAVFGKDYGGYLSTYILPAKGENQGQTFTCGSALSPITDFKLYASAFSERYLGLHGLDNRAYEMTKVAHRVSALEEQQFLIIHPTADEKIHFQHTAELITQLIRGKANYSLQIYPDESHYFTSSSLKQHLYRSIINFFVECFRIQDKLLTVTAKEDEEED
Kind of assay: affinity, method not stated (Table 1-4).
B1 had a dissociation constant (Kd) of 69 nM.
In the case of B2, the Kd is 13 nM.
The result for B3 reads 1.2 nM; that for B4, 27.2 nM.
